{
  "source": "paper PMC6679193",
  "about": "“Unraveling the Impact of Cysteine-to-Serine Mutations on the Structural and Functional Properties of Cu(I)-Binding Proteins” (International Journal of Molecular Sciences, 2019)",
  "binders": {"B1": {"name": "Atox1 metallochaperone, wild type (WT-Atox1) (natural protein, human)", "chain": "MPKHEFSVDMTCGGCAEAVSRVLNKLGGVKYDIDLPNKKVCIESEHSMDTLLATLKKTGKTVSYLGLE", "notes": "Human Atox1 copper metallochaperone"}, "B2": {"name": "MBD3-4_C268S_C271S_C370S_C373S mutant of ATP7B (SER-MBD3-4) (domain or fragment, human)", "chain": "SANQNFNNSETLGHQGSHVVTLQLRIDGMHSKSSVLNIEENIGQLLGVQSIQVSLENKTAQVKYDPSCTSPVALQRAIEALPPGNFKVSLPDGAEGSGTDHRSSSSHSPGSPPRNQVQGTCSTTLIAIAGMTSASSVHSIEGMISQLEGVQQISVSLAEGTATVLYNPSVISPEELRAAIEDMGFEASVVSESCSTNPLGNH", "notes": "The methods describe only the wild-type construct; also called MBD3-4(Ser); source: expressed and purified as WT-MBD3-4 (E. coli Origami 2, chitin beads, intein self-cleavage)"}, "B3": {"name": "CueR metalloregulator of E. coli, wild type (WT-CueR) (natural protein, UniProt P0A9G4 1-135, looked up)", "chain": "MNISDVAKITGLTSKAIRFYEEKGLVTPPMRSENGYRTYTQQHLNELTLLRQARQVGFNLEESGELVNLFNDPQRHSADVKRRTLEKVAEIERHIEELQSMRDQLLALANACPGDDSADCPIIENLSGCCHHRAG", "notes": "No cleavage is described; source: E. coli BL21, purified (Ni-NTA agarose)"}, "B4": {"name": "CueR_C120S (natural protein, E. coli, UniProt P0A9G4 1-135, looked up)", "chain": "B3 chain with C120S", "notes": "E. coli CueR, same construct as m4, with C120S; source: E. coli BL21, purified (Ni-NTA agarose)"}, "B5": {"name": "CueR_C112S_C120S (natural protein, E. coli, UniProt P0A9G4 1-135, looked up)", "chain": "B3 chain with C112S, C120S", "notes": "E. coli CueR, same construct as m4, with C112S and C120S; source: E. coli BL21, purified (Ni-NTA agarose)"}, "B6": {"name": "CueR_C112S (natural protein, E. coli, UniProt P0A9G4 1-135, looked up)", "chain": "B3 chain with C112S", "notes": "E. coli CueR, same construct as m4, with C112S; source: E. coli BL21, purified (Ni-NTA agarose)"}},
  "key": {"[1]": {"target": "T1, ATP7B metal binding domains 3-4, wild type (WT-MBD3-4) (human, UniProt P35670 238-439)", "T1 construct": "The printed PCR primers encode a start at RPLSSAN and an end at TNPLGNH followed by a stop codon; Residues of the vector may remain after intein cleavage; also called ATP7B MBD3-4; ATP7B-MBD34; source: E. coli Origami 2, purified (chitin beads, intein self-cleavage with DTT)", "T1 sequence": "B2 chain with S31C, S34C, S133C, S136C", "test": "cross-linking; 0.1% glutaraldehyde, RT, 30 min or overnight, phosphate buffer (25 mM Na2HPO4, 150 mM NaCl, pH 8), read by SDS-PAGE; MBD3-4 at 50 uM or increasing concentrations, Atox1 at 50 uM; with or without Cu(I) at different ratios", "conditions": "both partners purified"}, "[2]": {"target": "B2", "test": "cross-linking; 0.1% glutaraldehyde, RT, 30 min or overnight, phosphate buffer (25 mM Na2HPO4, 150 mM NaCl, pH 8), read by SDS-PAGE; MBD3-4 at 50 uM or increasing concentrations, Atox1 at 50 uM; with or without Cu(I) at different ratios", "conditions": "both partners purified"}, "[3]": {"target": "the molecule itself", "test": "cross-linking; 0.1% glutaraldehyde, RT, 30 min or overnight, phosphate buffer (25 mM Na2HPO4, 150 mM NaCl, pH 8), read by SDS-PAGE; MBD3-4 at 50 uM or increasing concentrations, Atox1 at 50 uM; with or without Cu(I) at different ratios"}, "[4]": {"target": "the molecule itself", "test": "cross-linking; 0.6% glutaraldehyde, RT, 30 min, phosphate buffer (25 mM Na2HPO4, 150 mM NaCl, pH 8), CueR at 20 uM, with or without Cu(I) at a 1:3 ratio, read by SDS-PAGE"}},
  "note": "Changes are numbered by the printed parent chain. Numbers in names are those of the source.",
  "data": [
    {"binder": "B1", "values": [
      {"measurement": "binding result", "setting": "[1]", "result": "binds"},
      {"measurement": "binding result", "setting": "[2]", "result": "binds"}
    ]},
    {"binder": "B2", "values": [
      {"measurement": "binding result", "setting": "[3]", "result": "binds"}
    ]},
    {"binder": "B3", "values": [
      {"measurement": "stoichiometry N", "setting": "[4]", "result": 2}
    ]},
    {"binder": "B4", "values": [
      {"measurement": "binding result", "setting": "[4]", "result": "binds"}
    ]},
    {"binder": "B5", "values": [
      {"measurement": "binding result", "setting": "[4]", "result": "binds"}
    ]},
    {"binder": "B6", "values": [
      {"measurement": "binding result", "setting": "[4]", "result": "binds"}
    ]}
  ]
}
